Results taken from the supplement of paper PMC6757056.
± gives the standard deviation of the averaged measurements.

B1: library; a variant is named by its letters at N, in order (parent)
chain: GCUGUCACCGAGAAACUGUGAAGUAUAUCUUAAACCUGGGCACUUAAAAGAUAUAUGGAGUUAGUAGUGCAACCUGCUCGGUCUGAUGAGUCCNNNNNNGGACGAAACAGC

Tests used:
cyclic di-GMP [1] = variants of: B1; test: FACS-Seq fitted mean relative fluorescence mCherry/BFP without ligand (log10 relative fluorescence); HEK293T; ligand: cyclic di-GMP (c-di-GMP-II aptamer); higher = higher reporter protein expression; conditions: ligand present: no
Outline: (§1)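 HEK293T libraries were made by lentiviral transduction with a ribozyme-switch mCherry reporter and an EF1α-BFP marker, enriched, and incubated with or without ligand for 48 h. Cells were sorted into 6 mCherry/BFP bins, and each bin's genomic DNA was PCR-amplified, barcoded and run on MiSeq. Fluorescence was derived by normal fitting of the bin counts. The fitted log10(mCherry/BFP) mean was scaled to five spiked-in control ribozymes.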

cyclic di-GMP [2] = variants of: B1; test: normalized RNA/DNA level without ligand (relative to sTRSVctl = 100) (log10 (% of sTRSVctl)); HEK293T; ligand: cyclic di-GMP (c-di-GMP-II aptamer); higher = less ribozyme self-cleavage, higher mRNA level; conditions: reporter: mCherry (pCS4076), ligand present: no
Method: (§2)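 Hammerhead (sTRSV) ribozyme switch libraries with a ligand aptamer grafted on stem I and a randomized N4-6 loop II, cloned into the 3' UTR of mCherry and transiently transfected into HEK293T cells; RNA-Seq 72 h post transfection with ligand added 1 h before transfection; RNA read count / plasmid DNA read count normalized to the non-cleaving sTRSVctl (x100), log10; sequences with >100 DNA reads. FACS-Seq: lentiviral library sorted into 6 bins after 48 h ligand, log-normal fit mean of mCherry/BFP scaled to controls. Printed sequences are partial switch sequences.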

cyclic di-GMP [3] = variants of: B1; test: FACS-Seq fitted mean relative fluorescence mCherry/BFP with ligand (log10 relative fluorescence); HEK293T; ligand: cyclic di-GMP (c-di-GMP-II aptamer); ligand concentration (+) FACS-Seq: 1 mM; higher = higher reporter protein expression; conditions: ligand present: yes
Outline: as §1

cyclic di-GMP [4] = variants of: B1; test: normalized RNA/DNA level with ligand (relative to sTRSVctl = 100) (log10 (% of sTRSVctl)); HEK293T; ligand: cyclic di-GMP (c-di-GMP-II aptamer); ligand concentration (+) RNA-Seq: 1 mM; higher = less ribozyme self-cleavage, higher mRNA level; conditions: reporter: mCherry (pCS4076), ligand present: yes
Method: as §2

Variant | FACS-Seq fitted mean (log10) (cyclic di-GMP [1]) | normalized RNA/DNA level without ligand (log10) (cyclic di-GMP [2]) | FACS-Seq fitted mean (log10) (cyclic di-GMP [3]) | normalized RNA/DNA level with ligand (log10) (cyclic di-GMP [4])
UGAUAU | -0.406 ± 0.087 | 1.649 ± 0.0089 | -0.0482 ± 0.1 | 1.82 ± 0.08
CUUAAA | -0.598 ± 0.053 | 1.37 ± 0.072 | -0.238 ± 0.21 | 1.53 ± 0.16
ACUGGG | -0.467 ± 0.024 | 1.58 ± 0.07 | -0.104 ± 0.015 | 1.69 ± 0.11
UUAUGA | -0.781 ± 0.045 | 1.63 ± 0.025 | -0.563 ± 0.026 | 1.81 ± 0.12
ACUACA | -0.0979 ± 0.082 | 1.55 ± 0.03 | 0.212 ± 0.16 | 1.73 ± 0.11
AAUGUG | 0.000386 ± 0.089 | 1.58 ± 0.051 | 0.206 ± 0.026 | 1.76 ± 0.09
UCUAAU | -0.491 ± 0.013 | 1.6 ± 0.017 | -0.327 ± 0.062 | 1.78 ± 0.1
CGGAUA | -0.243 ± 0.057 | 1.19 ± 0.13 | 0.0478 ± 0.023 | 1.3 ± 0.1
GAAGUU | -0.118 ± 0.022 | 1.55 ± 0.072 | 0.245 ± 0.074 | 1.7 ± 0.091
CUAAUG | -0.485 ± 0.042 | 1.49 ± 0.13 | -0.179 ± 0.011 | 1.7 ± 0.092
UCUGCU | -0.406 ± 0.013 | 1.786 ± 0.0052 | -0.176 ± 0.02 | 1.88 ± 0.081
ACAAUG | -0.431 ± 0.026 | 1.39 ± 0.15 | -0.0705 ± 0.082 | 1.66 ± 0.098
UAGAUG | 0.0515 ± 0.09 | 1.53 ± 0.057 | 0.322 ± 0.085 | 1.75 ± 0.089
UAAAAG | -0.3384 ± 0.0033 | 1.685 ± 0.0079 | -0.102 ± 0.2 | 1.84 ± 0.1
CUCCGU | 0.15 ± 0.23 | 1.8 ± 0.02 | 0.423 ± 0.0021 | 1.88 ± 0.093
CUACGA | -0.199 ± 0.061 | 1.62 ± 0.038 | 0.0797 ± 0.066 | 1.79 ± 0.086
CGGCAU | -0.564 ± 0.044 | 1.49 ± 0.073 | -0.2893 ± 0.0014 | 1.64 ± 0.13
GCACUU | -0.492 ± 0.071 | 1.588 ± 0.015 | -0.235 ± 0.081 | 1.8 ± 0.063
